# Numbering of substitutions follows the chain as printed.
# B1: ch38SB30 chimeric anti-CD38 antibody (antibody, V domains shown)
# VH: QVQLQQSGPELVRPGASVKISCKTSGYAFSGSWMNWVKQRPGQGLEWIGRIYPGDGDIIYNGNFRDKVTLSADKSSNTAYMQLSSLTSVDSAVYFCSRWGTFTPSFDYWGQGTTLTVSS
# VL: DIVMTQSHKFLSTSVGDRVSITCKASQDVVTAVAWFQQKPGQSPKLLIYSASHRYTGVPDRFTGSGSGTDFTFTIISVQAEDLAVYYCQQHYTTPTTFGGGTKLDFRR
# B2: 38SB30 murine anti-CD38 monoclonal antibody (antibody, V domains shown)
# VH: B1 VH
# VL: B1 VL
# notes: Murine hybridoma antibody; also called hybridoma PTA-7666
# B3: ch38SB31 chimeric anti-CD38 antibody (antibody, V domains shown)
# VH: DVKLVESGGGLVKPGGSLKLSCEASGFTFSSYTLSWVRQTPETRLEWVATISIGGRYTYYPDSVEGRFTISRDNAKNTLYLQMNSLKSEDTAMYYCTRDFNGYSDFWGQGTTLTVSS
# VL: DTVMTQSHKFISTSVGDRVSITCKASQVVGSAVAWYQQKPGQSPKLLIYWASTRHTGVPDRFTGSGSGTDFTLTISNVQSEDLADYFCQQYNSYPYTFGGGTKLEIKR
# notes: also called chimeric 38SB31
# B4: 38SB31 murine anti-CD38 monoclonal antibody (antibody, V domains shown)
# VH: B3 VH
# VL: B3 VL
# notes: Murine hybridoma antibody; also called hybridoma PTA-7668
# B5: ch38SB13 chimeric anti-CD38 antibody (antibody, V domains shown)
# VH: QIQLVQSGPELKKPGETVKISCKASGYTLTSYGMNWVKQAPGKGLKWMGWINTYTGEPTYADDFKGRFAFSLETSASTAFLQINNLKNEDTATYFCVRRGFAYWGQGTLVTVSA
# VL: NIVLTQSPASLAVSLGQRATISCRASESVEIYGNGFMNWFQQKPGQPPKLLIYRASNLESGIPARFSGSGSRTEFTLTIDPVEADDVATYYCQQINEDPFTFGSGTKLEIKR
# B6: ch38SB18 chimeric anti-CD38 antibody (antibody, V domains shown)
# VH: B5 VH with L29F, S31N, Y32S, T78S, F80Y, N84S, V97A, A102V
# VL: B5 VL with N1D, E30A, G35S, M37L, N38K, R72G, E74D, D80N, F100Y, S104G
# B7: 38SB18 murine anti-CD38 monoclonal antibody (antibody, V domains shown)
# VH: B5 VH with L29F, S31N, Y32S, T78S, F80Y, N84S, V97A, A102V
# VL: B5 VL with N1D, E30A, G35S, M37L, N38K, R72G, E74D, D80N, F100Y, S104G
# notes: Murine hybridoma antibody; also called hybridoma PTA-7669
# B8: 38SB13 murine anti-CD38 monoclonal antibody (antibody, V domains shown)
# VH: B5 VH
# VL: B5 VL
# notes: Murine hybridoma antibody purified by Protein A or G; also called hybridoma PTA-7667
# B9: ch38SB19 chimeric anti-CD38 antibody (antibody, V domains shown)
# VH: QVQLQQSGAELARPGTSVKLSCKASGYTFTDYWMQWVKQRPGQGLEWIGTIYPGDGDTGYAQKFKGKATLTADKSSKTVYMHLSSLASEDSAVYYCARGDYYGSNSLDYWGQGTSVTVSS
# VL: DIVMAQSHKFMSTSVGDRVSITCKASQDVSTVVAWYQQKPGQSPKRLIYSASYRYIGVPDRFTGSGSGTDFTFTISSVQAEDLAVYYCQQHYSPPYTFGGGTKLEIKR
# notes: also called chimeric 38SB19
# B10: 38SB19 murine anti-CD38 monoclonal antibody (antibody, V domains shown)
# VH: B9 VH
# VL: B9 VL
# notes: also called mu38SB19; murine 38SB19
# B11: ch38SB39 chimeric anti-CD38 antibody (antibody, V domains shown)
# VH: NVQLVESGGGLVQPGGSRKLSCAASGFTFSNFGMHWVRQAPEKGLEWVAYIRSGSGTIYYSDTVKGRFTISRDNPKNTLFLQMTSLRSEDTAMYYCARSYYDFGAWFAYWGQGTLVTVSA
# VL: DIVMTQSQKFMSTSVGDRVSVTCKASQNVGTNVAWYQHKPGQSPKIMIYSASSRYSGVPDRFTGSGSGTLFTLTINNVQSEDLAEYFCQQYNSYPLTFGSGTKLEIKR
# B12: 38SB39 murine anti-CD38 monoclonal antibody (antibody, V domains shown)
# VH: B11 VH
# VL: B11 VL
# notes: Murine hybridoma antibody; also called hybridoma PTA-7671
# B13: hu38SB31 v1.2 humanized anti-CD38 antibody (antibody, V domains shown)
# VH: B3 VH with D1E, K3Q, K19R, E42G, T43K, R44G, E65K
# VL: B3 VL with H8P, K9S, F10S, V15I, D60A
# B14: hu38SB31 v1.1 humanized anti-CD38 antibody (antibody, V domains shown)
# VH: B3 VH with D1E, K3Q, K19R, E42G, T43K, R44G, E65K
# VL: B3 VL with H8P, K9S, F10T, E81D
# Biological target: T1, human CD38 on cells (human, UniProt P28907 1-300)
# Experiment: cell-based or functional assay
Binder,"ADCC EC50, Ramos target cells, human NK effector cells, LDH release [ng/mL]","CDC EC50, Raji-IMG cells, human complement 5% [ng/mL]","CDC, specific viability of Daudi cells at 1.25 µg/mL or higher with complement [%]","apoptosis, Annexin V-positive Daudi cells after 24 h with 10 nM antibody [%]","apoptosis, Annexin V-positive MOLP-8 cells [%]","apoptosis, Annexin V-positive Ramos cells after subtraction of the non-treated control [%]","ADCC EC50, LP-1 multiple myeloma cells [ng/mL]","CDC EC50, LP-1 multiple myeloma cells [ng/mL]"
B1,2.2,20,45,,,,,
B2,,,,> 30,~50,≥ 7,,
B3,1.2,10,53,,,,0.24,43
B4,,,,> 30,~50,≥ 7,,
B5,1.3,5,65,,,,,
B6,1.3,10.1,85,,,,0.56,32
B7,,,,> 30,~50,≥ 7,,
B8,,,,> 30,~50,≥ 7,,
B9,1.8,28,,,,,0.34,30
B10,,,,> 30,~50,≥ 7,,
B11,113,400,91,,,,,
B12,,,,> 30,~50,≥ 7,,

# Biological target: T1, human CD38 on cells
# Experiment: FACS binding on Ramos cells
row,Binder,Kd [pM]
1,B3,120
2,B13,110
3,B14,130

# Biological target: T1, human CD38 on cells
# Experiment: FACS binding titration on Ramos cells
row,Binder,Kd [pM]
1,B9,180

# Biological target: T1, human CD38 on cells
# Experiment: apparent KD, FACS titration on Ramos cells, non-linear regression
row,Binder,Kd [pM]
1,B2,160
2,B4,110
3,B7,100
4,B8,100
5,B10,120
6,B12,3030

# Reference: patent US20110262454A1 (published 2011)
